In the supplement of paper PMC10567573:

B1: CCND2 (parent)
chain: YFKCVQKDIQPYMRRMVATWMLEV

Variants of: B1
Assay: protein stability index of a GFP-peptide fusion (GPS, HEK-293T) (PSI 1-6); higher = more stable
Conditions: c terminus: a fixed tail appended
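Also: lentivirally expressed fusions sorted by FACS into six bins by GFP to DsRed ratio, PSI derived from sequencing read proportions per bin multiplied by bin number.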

Variant | protein stability index
YFKCVQKDIQPYMRRMVATWMLEA | 2.41
YFKCVQKDIQPYMRRMVATWMLED | 1.56
YFKCVQKDIQPYMRRMVATWMLEP | 1.91
YFKCVQKDIQPYMRRMVATWMLET | 1.9
YFKCVQKDIQPYMRRMVATWMLEL | 2.68
YFKCVQKDIQPYMRRMVATWMLEQ | 2.5
YFKCVQKDIQPYMRRMVATWMLEK | 1.63
YFKCVQKDIQPYMRRMVATWMLEE | 2.42
YFKCVQKDIQPYMRRMVATWMLEI | 3.24
YFKCVQKDIQPYMRRMVATWMLEF | 3.08
YFKCVQKDIQPYMRRMVATWMLEH | 1.94
YFKCVQKDIQPYMRRMVATWMLEY | 2.06
YFKCVQKDIQPYMRRMVATWMLES | 2.97
YFKCVQKDIQPYMRRMVATWMLEG | 2.9
YFKCVQKDIQPYMRRMVATWMLEW | 1.91
YFKCVQKDIQPYMRRMVATWMLER | 2.65
YFKCVQKDIQPYMRRMVATWMLEC | 1.93
YFKCVQKDIQPYMRRMVATWMLEM | 2.09
YFKCVQKDIQPYMRRMVATWKLEV | 3.19
YFKCVQKDIQPYMRRMVATWHLEV | 2.08
YFKCVQKDIQPYMRRMVATWALEV | 1.67
YFKCVQKDIQPYMRRMVATWRLEV | 1.86
YFKCVQKDIQPYMRRMVATWFLEV | 1.96
YFKCVQKDIQPYMRRMVATWCLEV | 3.87

Variant | protein stability index
YFKCVQKDIQPYMRRMVATWSLEV | 3.49
YFKCVQKDIQPYMRRMVATWILEV | 2.58
YFKCVQKDIQPYMRRMVATWLLEV | 1.76
YFKCVQKDIQPYMRRMVATWWLEV | 4.25
YFKCVQKDIQPYMRRMVATWQLEV | 1.76
YFKCVQKDIQPYMRRMVATWNLEV | 2.54
YFKCVQKDIQPYMRRMVATWDLEV | 2.43
YFKCVQKDIQPYMRRMVATWGLEV | 2.52
YFKCVQKDIQPYMRRMVATWPLEV | 2.24
YFKCVQKDIQPYMRRMVATWVLEV | 2.55
YFKCVQKDIQPYMRRMVATWELEV | 2.72
YFKCVQKDIQPYMRRRVATWMLEV | 2.65
YFKCVQKDIQPYMRRSVATWMLEV | 2.58
YFKCVQKDIQPYMRRVVATWMLEV | 2.3
YFKCVQKDIQPYMRRNVATWMLEV | 1.51
YFKCVQKDIQPYMRRPVATWMLEV | 3.25
YFKCVQKDIQPYMRRQVATWMLEV | 2.91
YFKCVQKDIQPYMRRYVATWMLEV | 2.41
YFKCVQKDIQPYMRRTVATWMLEV | 3.51
YFKCVQKDIQPYMRRMVATWMGEV | 2.07
YFKCVQKDIQPYMRRMVATWMVEV | 2.94
YFKCVQKDIQPYMRRMVATWMWEV | 2.6
YFKCVQKDIQPYMRRMVATWMYEV | 2
YFKCVQKDIQPYMRRMVATWMNEV | 1.65

Variant | protein stability index
YFKCVQKDIQPYMRRMVATWMAEV | 3.01
YFKCVQKDIQPYMRRMVATWMIEV | 2.61
YFKCVQKDIQPYMRRMVATWMTEV | 3
YFKCVQKDIQPYMRRMVATWMEEV | 1.74
YFKCVQKDIQPYMRRMVATWMCEV | 2.25
YFKCVQKDIQPYMRRMVATWMQEV | 1.96
YFKCVQKDIQPYMRRMVATWMSEV | 2.72
YFKCVQKDIQPYMRRMVATWMHEV | 1.59
YFKCVQKDIQPYMRRMVATWMDEV | 1.89
YFKCVQKDIQPYMRRMVATWMPEV | 1.63
YFKCVQKDIQPYMRRMVATWMFEV | 4.78
YFKCVQKDIQPYMRRMVATWMKEV | 2.34
YFKCVQKDIQPYMRRMVATWMREV | 1.96
YFKCVQKDIQPYMRRMVATDMLEV | 1.63
YFKCVQKDIQPYMRRMVATKMLEV | 1.84
YFKCVQKDIQPYMRRMVATVMLEV | 3.41
YFKCVQKDIQPYMRRMVATQMLEV | 2.61
YFKCVQKDIQPYMRRMVATHMLEV | 2.88
YFKCVQKDIQPYMRRMVATLMLEV | 4.58
YFKCVQKDIQPYMRRMVATYMLEV | 3.49
YFKCVQKDIQPYMRRMVATNMLEV | 1.24
YFKCVQKDIQPYMRRMVATEMLEV | 3.61
YFKCVQKDIQPYMRRMVATIMLEV | 2.57
YFKCVQKDIQPYMRRMVATAMLEV | 2.36

Variant | protein stability index
YFKCVQKDIQPYMRRMVATGMLEV | 1.95
YFKCVQKDIQPYMRRMVATSMLEV | 2
YFKCVQKDIQPYMRRMVATRMLEV | 2.17
YFKCVQKDIQPYMRRMVATPMLEV | 2.58
YFKCVQKDIQPYMRRMVATCMLEV | 3.44
YFKCVQKDIQPYMRRMVATFMLEV | 2.34
YFKCVQKDIQPYMRRMVATTMLEV | 2.18
YFKCVQKDIQPYMRRMVAQWMLEV | 1.75
YFKCVQKDIQPYMRRMVARWMLEV | 1.58
YFKCVQKDIQPYMRRMVASWMLEV | 2.83
YFKCVQKDIQPYMRRMVADWMLEV | 1.97
YFKCVQKDIQPYMRRMVAIWMLEV | 2.75
YFKCVQKDIQPYMRRMVAVWMLEV | 2.61
YFKCVQKDIQPYMRRMVAYWMLEV | 3.88
YFKCVQKDIQPYMRRMVAPWMLEV | 1.41
YFKCVQKDIQPYMRRMVAAWMLEV | 3.42
YFKCVQKDIQPYMRRMVAHWMLEV | 3.25
YFKCVQKDIQPYMRRMVANWMLEV | 3.9
YFKCVQKDIQPYMRRMVAMWMLEV | 1.84
YFKCVQKDIQPYMRRMVAWWMLEV | 2.88
YFKCVQKDIQPYMRRMVAFWMLEV | 2.85
YFKCVQKDIQPYMRRMVAGWMLEV | 2.5
